In the supplement of paper PMC10567573:

B1: BTBD1 (parent)
chain: YGSIHGPTDYQVNIQIIEYEKKQT

Variants of: B1
Experiment: protein stability index of a GFP-peptide fusion (GPS, HEK-293T) (PSI 1-6); higher = more stable
Details: c terminus: a fixed tail appended
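Further: lentivirally expressed fusions sorted by FACS into six bins by GFP to DsRed ratio, PSI derived from sequencing read proportions per bin multiplied by bin number.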

Protein stability index: each site, then its substitutions
D9: Y 2.08, V 2.24, C 1.94, G 1.75, A 3.12, I 4.42, Q 2.18, N 1.98, H 1.63, M 2.23, E 1.95, T 2.42, S 1.65, P 2.44, K 1.82, R 2.65, L 3.37
G6: Q 3.26, W 2.71, E 3.54, F 1.63, P 3.18, I 2.17, L 2.6, C 2.81, H 3, D 3.61, N 3.4, T 3.19, A 2.96, Y 2.44, S 3.15, R 2.88, M 2.85, V 2.21, K 3
H5: W 2.09, T 2.52, V 2.04, F 1.99, G 3.06, K 3.72, M 2.73, N 2.13, R 2.98, C 2.41, Q 2.78, D 3.09, E 3.71, S 3.26, P 3.29, I 2.67, Y 1.98, A 3.31, L 2.88
P7: L 2.21, H 2.65, D 3.29, A 2.6, F 2.47, C 2, Q 2.65, Y 1.75, G 2.87, K 2.49, R 1.75, V 2.63, T 2.73, N 2.84, W 4.06, I 2.44, E 3.33, M 2.31, S 2.76
T8: D 3.66, Y 2.56, C 2.25, F 2.17, Q 3.08, H 2.38, A 2.71, S 3.11, L 1.91, I 2.06, K 2.16, P 2.97, E 2.88, R 2.57, V 2.06, N 2.94, M 1.74, W 3.36, G 2.44
I4: W 2.5, P 3.1, S 2.45, Y 2.94, Q 3.06, R 1.93, T 2.81, V 2.63
Q11: G 2.57, V 1.42, C 1.54, L 2.83, M 1.93, Y 2.24, N 2.39, K 2.15, S 2.34, W 2.67, E 2.66, P 3.5, T 1.55, I 1.68, R 2.32, D 3.52, A 2.26, H 2.48
V12: K 3.44, T 3.72, S 3.98, I 2.72, P 2.95, E 4.08, R 3.66, Q 4.19, W 2.32, G 3.52, F 2.71, M 2.93, A 3.6, Y 2.87, N 4.15, L 3.28, D 4.04, C 2.77, H 4.09
N13: L 2.22, E 2.79, D 2.59, I 1.83, C 1.7, A 2.4, H 2.48, G 3.34, K 2.57, F 1.39
Y10: V 2.77, M 3.63, K 4.24, Q 4.33, D 4.3, C 2.96, F 2.43, A 4.06, E 4.55, G 3.79, L 2.87, W 2.05, H 3.77, R 4.12, N 4.48, I 2.44, T 4.1, P 4.31, S 4.16
